US20150031620

Key:
[1] = tested on: mutant rTMD23NA (thrombomodulin domains 2 and 3 with N364A and N391A)
[2] = tested on: recombinant human TMD23 (wild-type thrombomodulin domains 2 and 3)
Chain of recombinant human TMD23 (wild-type thrombomodulin domains 2 and 3) (chain, as listed by the source): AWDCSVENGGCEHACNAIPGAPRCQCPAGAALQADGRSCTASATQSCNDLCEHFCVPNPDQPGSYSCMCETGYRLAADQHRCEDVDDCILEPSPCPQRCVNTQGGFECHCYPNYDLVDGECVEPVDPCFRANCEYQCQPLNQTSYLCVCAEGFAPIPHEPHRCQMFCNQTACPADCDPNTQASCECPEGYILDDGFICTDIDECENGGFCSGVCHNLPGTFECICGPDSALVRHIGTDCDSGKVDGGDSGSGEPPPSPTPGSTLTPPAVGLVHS

Chain of mutant rTMD23NA (thrombomodulin domains 2 and 3 with N364A and N391A) (chain, as listed by the source N364A N391A): as the sequence (chain, as listed by the source) above, with N141A, N168A counted along it

thrombin was tested, and the “thrombin-dependent activation of protein C (hydrolysis of Chromozym PCa, absorbance at 405 nm)” value [1] was “The mutant rTMD23NA lost its cofactor activity in catalyzing thrombin-dependent activation of Protein C” and the “thrombin-dependent activation of protein C (hydrolysis of Chromozym PCa, absorbance at 405 nm)” value [2] was “only recombinant TMD23 gave rise to thrombin-dependent protein C activation”.
